Data: patent CN114591427A (SHENZHEN LIGHT AND BIOTECHNOLOGY CO LTD; GUANGDONG PEOPLES …, dated 2022)

Target: T1, MPT32蛋白 in protein extracts of clinical samples of tuberculosis patients (结核分枝杆菌 (Mycobacterium tuberculosis), UniProt P9WIR7 40-325)
T1 construct: Native antigen detected by western blot in patient samples; also called 结核分枝杆菌MPT32蛋白; 抗原蛋白
T1 sequence (looked up): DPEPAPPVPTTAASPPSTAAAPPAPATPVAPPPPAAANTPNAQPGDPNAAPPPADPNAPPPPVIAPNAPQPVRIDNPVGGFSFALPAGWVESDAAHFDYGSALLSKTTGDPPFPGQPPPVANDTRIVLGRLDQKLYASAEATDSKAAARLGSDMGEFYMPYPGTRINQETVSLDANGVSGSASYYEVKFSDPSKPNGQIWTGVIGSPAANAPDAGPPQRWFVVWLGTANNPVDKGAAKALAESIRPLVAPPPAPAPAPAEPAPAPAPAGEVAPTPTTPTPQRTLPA
Assay: western blot of protein extracts of clinical samples

B1: 鼠抗MPT32蛋白单克隆抗体 (secreted by hybridoma cell line 13B12, CCTCC NO:C2021305) (antibody, V domains shown)
VH: QVQLQQSGAELVKPGASVKMSCKASGFTFTSYWINWVKQRPGQGLEWIGDLYPGRGITNYNEKFKPKATLTLDTSSSTAYMQLSSLTSEDSAVYYCSTGPYWGQGTILTVSS
VL: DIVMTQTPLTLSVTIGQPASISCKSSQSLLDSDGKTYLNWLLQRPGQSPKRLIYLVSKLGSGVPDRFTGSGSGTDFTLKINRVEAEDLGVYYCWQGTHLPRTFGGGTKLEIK
notes: also called 鼠抗MPT32单克隆抗体; MPT32蛋白抗体
B1: binds.
